The values below come from the nanobody polyreactivity screen of Harvey et al. (2022).

This data set in a line: yeast display, Sf9 membrane polyspecificity reagent, FACS + sequencing; frameworks hold sequencing errors. The gist of the method: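 Galactose-induced (36–48 hours) yeast carrying a synthetic nanobody display library were exposed to 10% biotinylated, detergent-solubilized Sf9 membrane reagent at 4 °C for 1 hour. FACS followed streptavidin microbead enrichment, using low and high (top ~1%) gates for expression (anti-HA) and reagent binding (streptavidin). Colony PCR, MiSeq 2 × 250 sequencing and CDR-length filtering followed. Labels for polyreactivity reflect the gate of origin.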
For “QVQLVESGGGLVHAGGSLRLSCAASGSIFTKYVMGWYRQAPGKERELVAAITYSGGNTYYADSVKGRFTISRDNAKNTVYFQMNSLKPEDTAVYYCAAKSSAHRGGYWGQGTQVTVSS”, the “polyreactivity (PSR sort gate)” value is “high polyreactivity”.
The same measure for “QVQLVESGGGLVQAGGSLRLSCAASGLIFVDNAMGWYRQAPGKERELVAAIDSGGSTNYADSVKGRFTISRDNAKNTVYLQMNSLKPEDTAVYYCAADWIYAPWYYQESVEYYYWGQGTQVTVSS”: “low polyreactivity”.
The same measure for “QVQLVESGGGLVQAGGSLRLSCAASGSTFVYYAMGWYRQAPGKERELVADISWSGGDTYYADSVKGRFTISRDNAKNTVYFQMNSLKPEDTAVYYCAAEWSTPSYVGFADGFEYWGQGTQVTVSS”: “low polyreactivity”.
The same measure for “QLQLVESGGGLVQAGGSIRLSCAASGSIFDWYAMGWYRQEPGKERELVARITSGGRTNYADSVKGRFTISRDNAKNTVYLQMNSLKPEDTAVYYCAAGRVSWSPYYYWGQGTQVTVSS”: “high polyreactivity”; for “QVQLVESGGGLVQAGGSLRLSCAASGFTNLNSMGRYRQAPGKERELVADISASGGTTYYADSVKGRFTISLDNAKNTVYLQMNSLKPEDTAVYYCAARRYYPRWYYWIRFDYWGQGTQVTVSS”: “high polyreactivity”; for “QVQLVESGGGLVQAGGSLRLSCAASGFIFPSYAMGWYRQAPGKERELVATISKRVATTYYADSVKGRFTISRDNAKNTVYLQMNSLKPEDTAVYYCAAAYRGYARHDYWGQGTQVTVSS”: “high polyreactivity”.
For “QVQLVESGGGLVQAGGSLRLSCAASGRNFRANAMGWSRQEPGKERELVASITYSGGSTYYADSVKGRFTISRDNAKNTVYVQMNSLKPEDTAVYYCARAGISSGGYYYWGQGTQVTVSS”, the “polyreactivity (PSR sort gate)” value is reported as “low polyreactivity”.
Take “QVQLVESGGGLVQAGGSLRLSCAASGITFSYNAMGWSRQAPGKERELVAAIRVGDGSTYYADSVKGRFTISRDNAKNTVYLQMNSLKPEDTAVYYCNARYLRLRYPYTDEYNYWGQGTQVTVSS”: the “polyreactivity (PSR sort gate)” value is given as “low polyreactivity”.
With “QVKLVESGGGLVQAGGSLRLSCAASGFTFNGYGMGWYRQAPGKERELVAAISRSSGGTYYADSVKGRFTISRDNAKNTVYLQMNSLKPVDTAVYYCAATGYRTATPSWRYYYWGQGSQVTVSS” the entry was “high polyreactivity”; with “QVQLVESGGGLVQAGGSLRLSCAASGRIFTSYVMGWYRQAPGKERELVAAITWGGSTKYADSVKGRFTISRVNAKNTVYLQMNSLKPEDTAVYYCAADGGEYYKGFFAVPYGYWGQGTQVTVSS”, “low polyreactivity”; with “QVQLVESGGGLVQAGGSLRLSCAASGRIFWDNAMGWYRQAPGKERELVAAISDSVVITYYADSVKGRFTISRDNAKNTVYLQMNSLKPEDTAVYYCNTDARYDEYDEFDYWGQGTQVTVSS”, “low polyreactivity”.
On to “QVQLVESGGGLVQAGGSLRLSCAASGRTFRVNSMGWYRPAPGKDRELVATIRWTGGSTYYADSVKGRFTISRDNAKNTVYLQMNSLKPEDTAVYYCAARIAVYHRGIGGYWGQGTQVTVSS”, for which the “polyreactivity (PSR sort gate)” value is recorded as “high polyreactivity”.
The same measure for “QVQLVESGGGLVQAGGSLRLSCAASGGTSQGNAMGWYRQAPGKERELVAAISWSGGTTYYADSVKGRFTISRDNAKNTVYLQMNSLKPEDTAVYYCAAYRYAGRYVPYGDYDYWGQGTQVTVSS”: “low polyreactivity”; for “QVQLVESGGGLVQPGGSLRLSCAASGRIFYYYAMGWYRQAPGKERELVAAITWNGTSTYYADSVKGRFTISRDNAKNTVYLQMNSLKPEDTAVYYCAKSLRAYRHVIYGKPFYSWGQGTQVTVSS”: “low polyreactivity”.
Turning to “QVQLVESGGGLVQAGGSLRLSCAASGSIFYFYTMGWYRQAPGKERELVASITYSGGRTYYADSVKGRFTISRDNAKNTVYLQMNSLKPEDTAVYYCAVRGYRRYWGQGTQVTVSS”, the “polyreactivity (PSR sort gate)” value is listed as “high polyreactivity”.
With “QVQLVESGGGLVQAGGSLRLSCAASGFIFYIYAMGWYRQAPGKEWELVAAISGGGGSTYYAASVKGRFTISRDNAKNTVYLQINSLKPEDTAVSYCAARYDVAWYSKRYSWGQGTQVTVSS” the entry was “high polyreactivity”.
The same measure for “QVQLVESGGGLVQAGGSLRLSCAASGFTFEGYAMGWYRQAPGKERELVAAISDNGGRTYYADSVKGRFTISRDNAKNTVYLQMHPLTPEETEVYYCNARPAYSGPDYDYYHGRRYDYWGQGTQVTVSS”: “low polyreactivity”; for “QVQLVESGGGLVQAGGSLRLSCAASGIIFVYYTMGWYRQAPGKERELVAAITSGGSTYYADSVKGRFTISRDNAKNTVYVQMNSLKPEDTAVYYCAAVGRPPYAGDRGYWGQGTQVTVSS”: “high polyreactivity”.
With “QVQLVESGGGLVQAGGSLRLSCAASGFTFSRNVMGWYRQAPGKERELVADITLSGASTYYADSVKGRFTISRDNAKNTVYLQMNSLKPEDTADYYCAADPYHWRWGWRHDYWGQGTQVTVSS” the entry was “low polyreactivity”; with “QVQLVESGGGLVQAGGSLRLSCAASGSTFGSNAMGWYRQAPGKERELVAAITGGDVSTYYADSVKGRFTISRDNAKNTVYLQMNSLKPEDTAVYYCNAEYARPAMDYWGQGTQVTVSS”, “low polyreactivity”.
“QVQLVESGGGLVQAGGSLRLICAASGRTFYVYAMAWYRQEPGKERELVAAISKSGGSTYYADSVKGRFTISRDNAKNSVYLPMNSLKPEDTAGYYCNRYRFVRQVRGGGLPYDYWGQGTQVTVSS”: the “polyreactivity (PSR sort gate)” value is listed as “high polyreactivity”.
With “QVQLVESGGGLVQAGGSLRLSCAASGRIFDLNAMGWYRQAPGKERELVAAITWSGDSTYYADSVKGRFTISRDNAKNTVYLQMNSLKPEDTAVYYCAAASRTSYSWVDYEFDYWGQGTQVTVSS” the entry was “low polyreactivity”; with “QVQLVESGGGLVQAGRSLRLSCGASGFTFGLYAMGWYRQATGKERELVAAITSSGRRTYYADSVKGRYTISRDKAKNTVSLEMNCLKPEDTAVYYFAKQAYDQSPYNYWGQGTQVTVSS”, “high polyreactivity”.
As for “QVQLVESGGGLVQAGGSLRFSCAASGGIFWHYTMGWYRQAHGKERELVAAITRRGGSTYYADSVKGRFTISRDNAKNTVYLQINSLKPEDTAVYYCAADFLPQSYNWYDYWGQGTQVTVAS”, the “polyreactivity (PSR sort gate)” value was “low polyreactivity”.
The same measure for “QVQLVESGGGLVQAGGSLRLSCAASGRTFYYNTMGWYRQAPGKERELVAAITSRGSTYADSVKGRFTISRDNAKNTVYLQMNSLKPEDTAVYYCAAVWRYGSWYSGRLYEYWGQGTQVTVSS”: “high polyreactivity”.
With “QVQLVESGGGLVQAGGSLRLICAASGRTIRYYAMGWYRQAPGKERELVAAITQNGGRTYYADSVKGRFTISRDNAKNTVYLQMNSLKPEDTAVYYCAKAFIQPGDKYDSWGQGTQVTVSS” the entry was “high polyreactivity”; with “QVQLVESGGGLVQAGGSLRLRCAASGSIFGLYAMGWYRQAPGKERELVAAINQSGGSTTYADSVKGRCTISRDNAKTPVYLQMNSLKPEATAGYSCPADSVGDYGYQVYASWGYEDEYCGQGTQVTVSS”, “low polyreactivity”.
The same measure for “QVQLVESGGGLVQAGGSLRLSCAASGSIISGYAMGWYRQAPGTERELVAAISSSGGRTYYADSVKGRFTISRDNAKNTVYLQMNSLKPEDTAVYYCAAAYTITYDYWGQGTQVTVSS”: “high polyreactivity”; for “QVQLVESGGGLVQAGGSLRLSCAASGFTFYVNAMGWYRQAPGKERELVAAISSRGGSTYYADSVKGRFTISRDNAKNTVYLQMNSLKPEDTAVYYCATAKSYGEDSWGQGTQVTVSS”: “high polyreactivity”.
As to “QVQLVESGGGLVQAGGSLRLSCAASGSTFPLYAMGWYRPAPGKEREFVAAINRSTGTTYYADSVKGRFTISRDNAKNTVYLQMNSLKPEDTAVYYCAARVYYRTVLGGYYYWGQGTQVTVSS”, the “polyreactivity (PSR sort gate)” value is given as “low polyreactivity”.
Turning to “QVQLVESGGGLVQAGGSLRLSCAASGRTFRYYAMGWYRQAPGKERELVADISSTGRTYYADSVKGRFTISRDNAKNTVYLQMNSLKPEDTAVYYCNADYFFEFDYWGQGTQVTVSS”, the “polyreactivity (PSR sort gate)” value is on record as “low polyreactivity”.
Regarding “QVQLVESGGGLVQAGGSLRLSCAASGGIISINAMGWYRQAPGKERELVAAISWGDGITYYADSVKGRFTTSRDNAKNTVYLLMTSLKPEDTAVYYCAKDIGTRLGPAGYDYWGQGTQVTVSS”, the “polyreactivity (PSR sort gate)” value is given as “low polyreactivity”.
For “QVQLVESGGGLVQAGRSHRLSCAASGSIFPVYVMGWYRQAPGKERELVAAISQSSGGTYYADSVKGRFTISRDNATITVYLQMNSLKPEDTAVYYCAARITAIQGQRYYWGQGTQVTVSS”, the “polyreactivity (PSR sort gate)” value is given as “high polyreactivity”.
The same measure for “QVQLVESGGGLVQAGGSLRLSCAASGLIFQTYAMGWYRQAPGKERELVATISGSTGGTYYADSVKGRFTISRDNAKNTVYLQMNSLKPEDTAVYYCNASVFQSEYDYWGQGTQVTVSS”: “low polyreactivity”; for “QVQLVESGGGLVQAGGSLRLSCAASGYTFPSNAMGWYRQAPGKERELVAAISSGGRTNYADSVKGRFTISRDNAKNTVYLQMNSLTPEDTAVYYCNADGGPGYPRAYDYWGQGTQVTGSS”: “low polyreactivity”.
The same measure for “QVQLVESGGGLVQAGGSLRLSCAASGIPRNTMGWYRQAPGKETELVASISTSGGSTYYADSVKGRFTISRDNAKNTVYLQMNSLKPEDTAVYYCAKKGYASRYFIYDYWGQGTQVTVSS”: “low polyreactivity”; for “QGQLVESGGGLVQAGGSLRLSCAASGRIFVTYAMGWYRQAPGKERELVATINSGGSTYYADSVKGRFTISRDNAKNTVYLQMNSLKPEDTAVYYCNTDFGQAHTLSWYEDMDYWGQGTQVTVSS”: “low polyreactivity”; for “QVQLVESGGGLVQAGGSHRLSCAASGFTFSAYTMGWYRQAPGKERELVAAISWRGTSTYYADSVKGRFTISRDNAKNTVYLQMNSLKPEDTAVYYCAVRWPSARIPVKLDYWGQGTQVNVSS”: “high polyreactivity”.
With “QVQLVESGGGLVQAGGSLRLSCAASGFIFHLYAMGWYRQAPGKERDLVAAIRISDGSTYYADSVKGRFTISRDNAKNSVYLQMNRLKPEDTAVYYCNVVYRYGGYNYWGQGTQVTVSS”, the “polyreactivity (PSR sort gate)” value is given as “high polyreactivity”.
With “QVQLVESVGGLVQAGGSLRLSCAASGSTLYPYAMGWYRQAPGKERELVAVITLRGGSTYYADSVKGRFTISRDNAKNTVYLQMNSLKPEDTAVYYCAARKRPFYKYDYWGQGTQVTVSS”, the “polyreactivity (PSR sort gate)” value was “high polyreactivity”.
